Reference: paper PMC11929898 (Scientific Reports, 2025)

Molecular target: SMC3 (mouse (endogenous in mouse ES cells), UniProt Q9CW03 1-1217)
Test: co-IP

Chain of SMC3 (Q9CW03 whole entry): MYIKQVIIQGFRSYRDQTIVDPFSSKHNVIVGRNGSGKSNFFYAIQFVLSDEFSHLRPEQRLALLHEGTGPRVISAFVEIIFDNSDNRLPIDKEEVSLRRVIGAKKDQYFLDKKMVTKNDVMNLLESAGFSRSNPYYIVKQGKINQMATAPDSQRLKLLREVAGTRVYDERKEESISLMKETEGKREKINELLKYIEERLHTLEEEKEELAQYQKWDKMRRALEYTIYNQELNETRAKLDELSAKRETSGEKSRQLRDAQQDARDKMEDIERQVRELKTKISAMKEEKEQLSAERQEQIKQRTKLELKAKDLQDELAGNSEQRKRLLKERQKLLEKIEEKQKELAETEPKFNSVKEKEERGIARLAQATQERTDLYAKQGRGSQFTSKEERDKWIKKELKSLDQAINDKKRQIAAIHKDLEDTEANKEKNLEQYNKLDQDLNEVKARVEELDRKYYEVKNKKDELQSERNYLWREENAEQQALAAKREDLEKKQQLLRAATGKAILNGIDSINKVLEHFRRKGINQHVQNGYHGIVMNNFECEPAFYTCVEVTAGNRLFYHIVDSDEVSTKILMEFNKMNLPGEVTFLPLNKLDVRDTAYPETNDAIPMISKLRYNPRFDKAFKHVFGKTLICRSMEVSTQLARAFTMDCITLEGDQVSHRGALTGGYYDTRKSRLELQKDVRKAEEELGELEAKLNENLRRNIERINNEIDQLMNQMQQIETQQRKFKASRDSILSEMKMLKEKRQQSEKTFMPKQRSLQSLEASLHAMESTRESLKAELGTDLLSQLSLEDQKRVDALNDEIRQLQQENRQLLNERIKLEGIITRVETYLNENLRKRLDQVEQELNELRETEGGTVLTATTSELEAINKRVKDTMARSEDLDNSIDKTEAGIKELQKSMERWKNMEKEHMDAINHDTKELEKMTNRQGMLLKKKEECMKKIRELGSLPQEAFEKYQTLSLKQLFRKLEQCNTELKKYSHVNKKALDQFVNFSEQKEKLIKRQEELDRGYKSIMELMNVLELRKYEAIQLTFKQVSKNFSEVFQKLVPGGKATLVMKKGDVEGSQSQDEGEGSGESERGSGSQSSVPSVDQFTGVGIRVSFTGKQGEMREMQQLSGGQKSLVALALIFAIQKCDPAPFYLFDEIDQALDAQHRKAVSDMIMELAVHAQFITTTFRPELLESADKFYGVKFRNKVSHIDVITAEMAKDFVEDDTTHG

B1: REC8 (natural protein)
chain: MFYYPNVLQRHTGCFATIWLAATRGSRLVKREYLNVNVVKTCEEILNYVLVRVQPPVAGLPRPRFSLYLSAQLQIGVIRVYFQQCQYLVEDIQHILEHLHRAQLRIRIDMEEADLPSLLLPNCLAMMETLEDAPEPFFGKMSVDPRLPSPFDIPQIRHLLEAATPEKTRKETLPEATPDPRKPDRTLATVQSPEVITLQEAEPIRMLQIEGEQDLPEISRGDLELLIAEKDDAILLEERQRGRLLRQRRASLPLDESREEPRALEGAGLVSALSPPAPAQVEGIQEALPGQVFPPEVQKMTGWEPGALLTEVTPPQELRLPAPPSTEKRLPSLQRPLPRRHRRRQLLFWDKETQISREKFEEQLQTGAHCWEYPVAQPPKRMLTSPAELFRTPTLSGWLPPELLGLWTHCAQVPQRMLRQRPQLETEETVEEERAADEEERRKTEALSEIEVLREAQEPSGPLMLSSELSLEAAEDEKSRTSLIPPEWWAWSEEGQPEPPALPMLPELPEVPMEMPPRPELSSEAVLRAVALKLQANKELDFSSLVPPLSPRKLASRVFYLLLVLSTQKILLVEQQKPYGPLLIRPGPKFP
fold change of co-IP with siRad21 against siCtrl: 1.92 fold
